# Measurements taken from FireProtDB (doi:10.1021/bi00010a017).
# Conditions: Saccharomyces cerevisiae (strain ATCC 204508 / S288c), pH 4.6, Thermal, CD, Unknown, reversible: yes
# Chain of Cytochrome c isoform 1 F16I, P00044 (P00044 whole entry F16I, canonical isoform): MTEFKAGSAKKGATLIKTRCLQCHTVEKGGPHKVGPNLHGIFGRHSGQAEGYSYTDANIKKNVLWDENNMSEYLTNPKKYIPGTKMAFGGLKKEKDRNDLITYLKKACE
# Chain of Cytochrome c isoform 1 L100I|Y103F, P00044 L100I Y103F (P00044 whole entry L100I/Y103F, canonical isoform): as the sequence (P00044 whole entry F16I, canonical isoform) above, with I16F, L100I, Y103F counted along it
# Chain of Cytochrome c isoform 1 L100T, P00044 (P00044 whole entry L100T, canonical isoform): as the sequence (P00044 whole entry F16I, canonical isoform) above, with I16F, L100T counted along it
# Chain of Cytochrome c isoform 1 L100V, P00044 (P00044 whole entry L100V, canonical isoform): as the sequence (P00044 whole entry F16I, canonical isoform) above, with I16F, L100V counted along it
# Chain of Cytochrome c isoform 1 Y103A, P00044 (P00044 whole entry Y103A, canonical isoform): as the sequence (P00044 whole entry F16I, canonical isoform) above, with I16F, Y103A counted along it
# Chain of Cytochrome c isoform 1 L100A|Y103F, P00044 L100A Y103F (P00044 whole entry L100A/Y103F, canonical isoform): as the sequence (P00044 whole entry F16I, canonical isoform) above, with I16F, L100A, Y103F counted along it
# Chain of Cytochrome c isoform 1 F16W, P00044 (P00044 whole entry F16W, canonical isoform): as the sequence (P00044 whole entry F16I, canonical isoform) above, with I16W counted along it
# Chain of Cytochrome c isoform 1 Y103F, P00044 (P00044 whole entry Y103F, canonical isoform): as the sequence (P00044 whole entry F16I, canonical isoform) above, with I16F, Y103F counted along it
# Chain of Cytochrome c isoform 1 L100A, P00044 (P00044 whole entry L100A, canonical isoform): as the sequence (P00044 whole entry F16I, canonical isoform) above, with I16F, L100A counted along it
# Chain of Cytochrome c isoform 1 L100I, P00044 (P00044 whole entry L100I, canonical isoform): as the sequence (P00044 whole entry F16I, canonical isoform) above, with I16F, L100I counted along it
# Chain of Cytochrome c isoform 1 wild type, P00044 (P00044 whole entry, canonical isoform): as the sequence (P00044 whole entry F16I, canonical isoform) above, with I16F counted along it
# Chain of Cytochrome c isoform 1 F16Y, P00044 (P00044 whole entry F16Y, canonical isoform): as the sequence (P00044 whole entry F16I, canonical isoform) above, with I16Y counted along it
Substance,Tm (structure 1YCC),"change of melting temperature, mutant - wild type (higher = more stable) (structure 1YCC)",heat capacity change of unfolding (structure 1YCC),unfolding enthalpy (van 't Hoff) (structure 1YCC),"heat capacity change of unfolding (52.8 °C, structure 1YCC)","unfolding free energy (52.8 °C, structure 1YCC)",heat capacity change of unfolding (52.8 °C),unfolding free energy (52.8 °C),Tm,heat capacity change of unfolding,unfolding enthalpy (van 't Hoff)
"Cytochrome c isoform 1 F16I, P00044",48.5 °C,-4.3 °C,1.57 kcal/mol/K,79.9 kcal/mol,–,–,–,–,–,–,–
"Cytochrome c isoform 1 F16W, P00044",47.6 °C,-5.2 °C,1.6 kcal/mol/K,75.6 kcal/mol,–,–,–,–,–,–,–
"Cytochrome c isoform 1 F16Y, P00044",50.9 °C,-1.9 °C,1.26 kcal/mol/K,75.5 kcal/mol,–,–,–,–,–,–,–
"Cytochrome c isoform 1 L100A, P00044",36.6 °C,-16.2 °C,1.94 kcal/mol/K,52.6 kcal/mol,–,–,–,–,–,–,–
"Cytochrome c isoform 1 L100A|Y103F, P00044 L100A Y103F",33.4 °C,-19.4 °C,1.78 kcal/mol/K,53.7 kcal/mol,–,–,–,–,–,–,–
"Cytochrome c isoform 1 L100I, P00044",54.1 °C,1.3 °C,1.81 kcal/mol/K,87.2 kcal/mol,1.81 kcal/mol/K,0.33 kcal/mol,–,–,–,–,–
"Cytochrome c isoform 1 L100I|Y103F, P00044 L100I Y103F",49.9 °C,-2.9 °C,1.76 kcal/mol/K,79.9 kcal/mol,–,–,–,–,–,–,–
"Cytochrome c isoform 1 L100T, P00044",38.9 °C,-13.9 °C,1.49 kcal/mol/K,57.8 kcal/mol,–,–,–,–,–,–,–
"Cytochrome c isoform 1 L100V, P00044",48.8 °C,-4 °C,1.54 kcal/mol/K,81.6 kcal/mol,–,–,–,–,–,–,–
"Cytochrome c isoform 1 Y103A, P00044",31.1 °C,-21.7 °C,1.77 kcal/mol/K,49.2 kcal/mol,–,–,–,–,–,–,–
"Cytochrome c isoform 1 Y103F, P00044",53.8 °C,1 °C,1.53 kcal/mol/K,84.5 kcal/mol,1.53 kcal/mol/K,0.24 kcal/mol,–,–,–,–,–
"Cytochrome c isoform 1 wild type, P00044",–,–,–,–,–,–,1.37 kcal/mol/K,0 kcal/mol,52.8 °C,1.37 kcal/mol/K,82.5 kcal/mol
